Values quoted from earlier work in publication PMC6191370.

Columns and labels:
[1] = target: intermediate-affinity IL-2R (beta/gamma chains) (Homo sapiens) (UniProt P14784)
CD25 (Homo sapiens) = CD25 (Homo sapiens) (UniProt P01589)
Sequence of UniProt P01589 (P01589 22-240): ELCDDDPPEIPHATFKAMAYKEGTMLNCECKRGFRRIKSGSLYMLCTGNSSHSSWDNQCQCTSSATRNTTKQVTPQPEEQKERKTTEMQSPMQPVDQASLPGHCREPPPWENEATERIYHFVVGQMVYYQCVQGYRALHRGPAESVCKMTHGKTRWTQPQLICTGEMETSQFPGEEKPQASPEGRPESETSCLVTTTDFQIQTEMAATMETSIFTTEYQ

Sequence of UniProt P14784 (P14784 27-240, chain 1 of 2): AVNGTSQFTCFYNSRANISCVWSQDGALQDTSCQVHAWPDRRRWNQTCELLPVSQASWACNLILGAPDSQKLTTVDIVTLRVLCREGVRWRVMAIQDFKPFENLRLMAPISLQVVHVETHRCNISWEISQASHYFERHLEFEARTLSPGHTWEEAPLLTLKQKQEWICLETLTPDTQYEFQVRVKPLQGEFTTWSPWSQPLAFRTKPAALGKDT
Sequence of UniProt P14784 (P31785 23-262, chain 2 of 2, further chain): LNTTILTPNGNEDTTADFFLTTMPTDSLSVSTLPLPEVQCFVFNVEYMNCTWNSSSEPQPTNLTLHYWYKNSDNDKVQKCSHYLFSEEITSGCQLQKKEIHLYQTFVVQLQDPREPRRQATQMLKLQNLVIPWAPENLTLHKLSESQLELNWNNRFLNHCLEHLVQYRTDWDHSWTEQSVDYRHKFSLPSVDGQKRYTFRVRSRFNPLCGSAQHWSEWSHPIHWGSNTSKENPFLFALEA

- Kd [1]: 1 nM
- Kd (CD25 (Homo sapiens)): 10 nM
Substance: IL-2 (from UniProt P60568)
